# Source: article PMC9927002 (Frontiers in Immunology, 2023)
# B1: N5 (antibody, V domains shown)
# VH: QVQLVQSGAEVKKPGSSVKVSCKASGGTFSSYAIGWVRQAPGQGLEWMGAIIPIFGTTIFAQKFQGRVTITADESTTTAYMELSSLRSDDTAVYYCARGGGGVERGVILTRWFDPWGQGTLVTVSS
# VL: QSVLTQPPSVSAAPGQKVTLSCSGSSSNIGNNHVSWYQQLPGTAPKLLIYDNNKRPSGIPDRFSGSKSGTSATLGITGLQTGDEADYYCGTWDNSLSAGVFGGGTKLTVV
# notes: also called N5 hmAb
# B2: N31 (antibody, V domains shown)
# VH: QMQLVQSGAEVKKPGSSVKVSCKASGGTFSSYGISWVRQAPGQGLEWMGGIIPILGTANYAQRFQGRIALTADESTSTAYMEVSSLRSEDTAVYYCARGMWSNPPGYCCSYMDVWGKGTTVTVSS
# VL: EIVLTQSPATLSVSPGERVTLACRASQSLRSKLAWYQQKPGQAPRLLIYDASTRATGFPARFSGSGSGTEFTLTISSLQSEDFAVYYCQQYSNWPRTFGQGTKLEIK
# notes: also called N31 hmAb
# B3: N3 (antibody, V domains shown)
# VH: QMQLVQSGAEVKRPGSSVKVSCKASGGTFSVYAISWVRQAPGQGLEWMGGIIPIFGTANYAQKFQGRVTLTADESTSTAYMELSSLSSEDTAVYYCARGGYCSGANCPKWGEWSHSYNYMDVWGKGTTVTVSS
# VL: not shown
# notes: also called N3 hmAb
# B4: N83 (antibody, V domains shown)
# VH: QVQLQESGPRLVKSSETLSLTCTVSGGSISSGSYYWNWIRQPAGKGLEWIGRVYISGVTSYNPSLKSRVTISLDISKNQFSLQLTSVTAADSAVYYCARGGMAVGAPLYYYFYGMDVWGQGTTVTVSS
# VL: DVVMTQSPLSLPVTPGEPASISCRSSQSLLHSNGYNYVDWYLQKPGQSPQLMIYLGSNRASGVPDRFSGSGSGTHFTLKISRVEAEDVGVYYCMQALQTLSITFGQGTRLEIK
# notes: also called N83 hmAb
# B5: 3B7 (antibody, V domains shown)
# VH: QMQLVQSGAEVKKPGASVRVSCKVSGYSLTELPMHWVRQAPGKGLEWVGSFDPQDAETTYAQRFQGRVAMTEDTSTDTAYMELSSLRSEDTAVYYCATPAPTIVGVVIYALHIWGQGTMVTVSS
# VL: EIVLTQSPGTLSLSPGERATLSCRASQRVSDNSLAWYQQKPGQAPSLLIFAASIRAPGIPDRISGTGSGTDFTLTINRLEPEDFVVYFCLQYTTSPPLTFGGGTKLEIK
# notes: also called 3B7 hmAb
# Target: T1, full-length N protein of HKU1 (HCoV-HKU1 isolate N1, NC_006577.2, UniProt Q5MQC6)
# T1 construct: also called HKU1 N; source: 293T cells, transfected (pcDNA3.1), in culture supernatant; not shown: D7-tag, C-terminal, kept
# Assay: ELISA
# Details: one partner purified
row,Binder,binding result
1,B1,no binding (tested: 10 µg/ml)
2,B2,no binding (tested: 10 µg/ml)
3,B3,no binding (tested: 10 µg/ml)
4,B4,no binding (tested: 10 µg/ml)
5,B5,no binding (tested: 10 µg/ml)

# Target: T2, full-length N protein of SARS-CoV (SARS-CoV, NC_004718.3 (Tor2), UniProt P59595)
# T2 construct: also called SARS-CoV N; source: 293T cells, transfected (pcDNA3.1), in culture supernatant; not shown: D7-tag, C-terminal, kept
# Assay: ELISA
# Details: one partner purified
row,Binder,binding result
1,B1,binds
2,B2,binds
3,B3,binds
4,B4,binds
5,B5,binds

# Target: T3, full-length SARS-CoV-2 nucleocapsid (N) protein (SARS-CoV-2, NC_045512.2 (Wuhan-Hu-1), UniProt P0DTC9)
# T3 construct: also called SARS-CoV-2 N protein; SARS-CoV-2 N/D7-Tag; not shown: D7-tag, C-terminal, kept
# Assay: BLI
# Details: one partner purified
Binder,Kd [nM],koff [s⁻¹],kon [M⁻¹ s⁻¹]
B1,< 0.001,< 1e-07,137000
B2,< 0.001,< 1e-07,174000
B3,< 0.001,< 1e-07,157000
B4,1.76,0.00113,639000
B5,1.94,0.000689,355000
